# The supplement of paper PMC9112550, “Optimization of the antimicrobial peptide Bac7 by deep mutational scanning” (BMC Biology, 2022)
# Test system: Escherichia coli TOP10
# Experiment: shrunken log2 fold change of peptide-encoding DNA abundance (4.5 h post-induction vs induction); higher = less antimicrobial activity (less host growth inhibition)
# Settings: time post-induction: 4.5 h; library: site-saturation at positions 5, 18, 19, 20
# 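Also: peptides expressed intracellularly from a pBAD plasmid library in pooled LB shake-flask culture, induced with 0.3% L-arabinose, DNA abundance read by NGS, three biological replicates, DESeq2 with apeglm shrinkage.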
row,Sequence,shrunken log2 fold change
1,RRIRVRPPRLPRPRPRPKVDPRP,0.0982
2,RRIRLRPPRLPRPRPRPALLPRP,0.295
3,RRIRMRPPRLPRPRPRPSEAPRP,1.95
4,RRIRCRPPRLPRPRPRPYGCPRP,-0.00123
5,RRIRYRPPRLPRPRPRPFHWPRP,0.0011
6,RRIRGRPPRLPRPRPRPQRAPRP,0.466
7,RRIRARPPRLPRPRPRPFNHPRP,-0.436
8,RRIRGRPPRLPRPRPRPNSMPRP,0.0537
9,RRIRWRPPRLPRPRPRPEWIPRP,0.475
10,RRIRERPPRLPRPRPRPIQCPRP,0.0885
11,RRIRDRPPRLPRPRPRPHMFPRP,-0.0389
12,RRIRNRPPRLPRPRPRPARLPRP,0.184
13,RRIRCRPPRLPRPRPRPYQYPRP,-0.399
14,RRIRKRPPRLPRPRPRPWRYPRP,-0.00865
15,RRIRMRPPRLPRPRPRPKDDPRP,2.12
16,RRIRNRPPRLPRPRPRPKHVPRP,-0.0669
17,RRIRSRPPRLPRPRPRPNCMPRP,-0.0954
18,RRIRLRPPRLPRPRPRPGASPRP,0.642
19,RRIRTRPPRLPRPRPRPWFFPRP,-0.0908
20,RRIRIRPPRLPRPRPRPLNHPRP,-0.458
21,RRIRMRPPRLPRPRPRPQFEPRP,0.046
22,RRIRIRPPRLPRPRPRPTQCPRP,-0.65
23,RRIRPRPPRLPRPRPRPMDGPRP,0.214
24,RRIRKRPPRLPRPRPRPKQTPRP,0.00774
25,RRIRGRPPRLPRPRPRPEVAPRP,1.88

row,Sequence,shrunken log2 fold change
1,RRIRQRPPRLPRPRPRPGEMPRP,0.0469
2,RRIRPRPPRLPRPRPRPQLLPRP,0.271
3,RRIRARPPRLPRPRPRPTHYPRP,0.702
4,RRIRPRPPRLPRPRPRPAQCPRP,0.148
5,RRIRVRPPRLPRPRPRPGDYPRP,-0.0161
6,RRIRNRPPRLPRPRPRPTFEPRP,-0.0715
7,RRIRQRPPRLPRPRPRPMLQPRP,0.00663
8,RRIRMRPPRLPRPRPRPKSWPRP,1.11
9,RRIRSRPPRLPRPRPRPDEFPRP,-0.149
10,RRIRLRPPRLPRPRPRPDAMPRP,0.224
11,RRIRLRPPRLPRPRPRPYQFPRP,-0.0128
12,RRIRPRPPRLPRPRPRPNQEPRP,0.0875
13,RRIRLRPPRLPRPRPRPAGAPRP,0.632
14,RRIRIRPPRLPRPRPRPNLWPRP,-0.132
15,RRIRQRPPRLPRPRPRPESMPRP,0.00186
16,RRIRDRPPRLPRPRPRPREVPRP,0.454
17,RRIRPRPPRLPRPRPRPAHWPRP,0.484
18,RRIRARPPRLPRPRPRPPSKPRP,0.491
19,RRIRFRPPRLPRPRPRPQMQPRP,0.203
20,RRIRHRPPRLPRPRPRPLIYPRP,-0.569
21,RRIRYRPPRLPRPRPRPVCCPRP,-0.644
22,RRIRTRPPRLPRPRPRPYMDPRP,-1.37
23,RRIRARPPRLPRPRPRPKYRPRP,-0.118
24,RRIRERPPRLPRPRPRPGDRPRP,0.172
25,RRIRTRPPRLPRPRPRPNSCPRP,0.0686

row,Sequence,shrunken log2 fold change
1,RRIRQRPPRLPRPRPRPVPLPRP,0.0148
2,RRIRNRPPRLPRPRPRPSGPPRP,-0.0894
3,RRIRIRPPRLPRPRPRPRPLPRP,0.181
4,RRIRARPPRLPRPRPRPCLFPRP,-0.131
5,RRIRWRPPRLPRPRPRPFGDPRP,-0.249
6,RRIRWRPPRLPRPRPRPWQFPRP,0.00487
7,RRIRYRPPRLPRPRPRPTIVPRP,-0.0265
8,RRIRWRPPRLPRPRPRPFNEPRP,-0.69
9,RRIRQRPPRLPRPRPRPAVHPRP,-0.0227
10,RRIRQRPPRLPRPRPRPRHFPRP,0.0257
11,RRIRFRPPRLPRPRPRPVVMPRP,0.297
12,RRIRVRPPRLPRPRPRPDFQPRP,-0.163
13,RRIRYRPPRLPRPRPRPNAEPRP,-0.122
14,RRIRQRPPRLPRPRPRPQFVPRP,-0.173
15,RRIRGRPPRLPRPRPRPHRNPRP,-0.184
16,RRIRYRPPRLPRPRPRPTINPRP,-1.41
17,RRIRRRPPRLPRPRPRPDRAPRP,0.322
18,RRIRIRPPRLPRPRPRPQMFPRP,-0.65
19,RRIRVRPPRLPRPRPRPFAGPRP,0.03
20,RRIRWRPPRLPRPRPRPPRLPRP,0.526
21,RRIRSRPPRLPRPRPRPVMDPRP,-0.496
22,RRIRTRPPRLPRPRPRPYRLPRP,-0.0268
23,RRIRSRPPRLPRPRPRPYLWPRP,-0.0115
24,RRIRYRPPRLPRPRPRPRMRPRP,0.667
25,RRIRKRPPRLPRPRPRPFQNPRP,-0.0235

row,Sequence,shrunken log2 fold change
1,RRIRQRPPRLPRPRPRPFAVPRP,-0.99
2,RRIRCRPPRLPRPRPRPYINPRP,-0.968
3,RRIRSRPPRLPRPRPRPTEVPRP,-0.125
4,RRIRWRPPRLPRPRPRPKSMPRP,-0.0141
5,RRIRGRPPRLPRPRPRPTDSPRP,0.526
6,RRIRVRPPRLPRPRPRPHLQPRP,0.14
7,RRIRWRPPRLPRPRPRPTTRPRP,0.672
8,RRIRGRPPRLPRPRPRPDRDPRP,0.326
9,RRIRHRPPRLPRPRPRPDTCPRP,-0.287
10,RRIRERPPRLPRPRPRPNTYPRP,-0.667
11,RRIRERPPRLPRPRPRPPSTPRP,-0.136
12,RRIRKRPPRLPRPRPRPTILPRP,-0.0105
13,RRIRIRPPRLPRPRPRPTWSPRP,0.047
14,RRIRPRPPRLPRPRPRPDHMPRP,-0.33
15,RRIRQRPPRLPRPRPRPMMMPRP,-0.327
16,RRIRDRPPRLPRPRPRPASEPRP,0.453
17,RRIRQRPPRLPRPRPRPSLFPRP,-0.11
18,RRIRYRPPRLPRPRPRPVWYPRP,-0.105
19,RRIRKRPPRLPRPRPRPHEAPRP,-0.022
20,RRIRHRPPRLPRPRPRPSLMPRP,0.0202
21,RRIRNRPPRLPRPRPRPRIWPRP,0.0945
22,RRIRFRPPRLPRPRPRPKGCPRP,0.418
23,RRIRRRPPRLPRPRPRPCDPPRP,0.0316
24,RRIRYRPPRLPRPRPRPIHRPRP,-0.0635
25,RRIRLRPPRLPRPRPRPHHKPRP,-0.644

row,Sequence,shrunken log2 fold change
1,RRIRERPPRLPRPRPRPLRPPRP,0.889
2,RRIRHRPPRLPRPRPRPPVNPRP,0.0303
3,RRIRMRPPRLPRPRPRPCFVPRP,-0.103
4,RRIRTRPPRLPRPRPRPLDQPRP,0.365
5,RRIRSRPPRLPRPRPRPRFYPRP,-0.642
6,RRIRVRPPRLPRPRPRPCLAPRP,-0.0591
7,RRIRGRPPRLPRPRPRPKRIPRP,0.147
8,RRIRRRPPRLPRPRPRPSYHPRP,-0.368
9,RRIRRRPPRLPRPRPRPVLHPRP,0.0722
10,RRIRLRPPRLPRPRPRPHHYPRP,-0.628
11,RRIRNRPPRLPRPRPRPKAYPRP,0.0121
12,RRIRNRPPRLPRPRPRPLFDPRP,-0.298
13,RRIRERPPRLPRPRPRPRRGPRP,0.142
14,RRIRIRPPRLPRPRPRPCVPPRP,-0.162
15,RRIRSRPPRLPRPRPRPMFPPRP,-0.22
16,RRIRLRPPRLPRPRPRPTMQPRP,-0.0477
17,RRIRHRPPRLPRPRPRPQTAPRP,0.00296
18,RRIRPRPPRLPRPRPRPVDLPRP,0.036
19,RRIRYRPPRLPRPRPRPLMWPRP,-0.0343
20,RRIRNRPPRLPRPRPRPRYTPRP,-0.56
21,RRIRMRPPRLPRPRPRPFQKPRP,-0.00623
22,RRIRARPPRLPRPRPRPWPGPRP,0.266
23,RRIRIRPPRLPRPRPRPAALPRP,-0.134
24,RRIRSRPPRLPRPRPRPKPPPRP,0.292
25,RRIRPRPPRLPRPRPRPVKLPRP,-0.0669
